The source of these data is paper PMC12369401, “A β‐1,2‐glucan‐associated glycoside hydrolase family 1 β‐glucosidase from Streptomyces griseus” (Protein Science : A Publication of the Protein Society, 2025).

Series [1] concerns the target T1, SGR_2426r (SGR_2426 protein) (Streptomyces griseus, UniProt B1W1N0, E318G).
T1 construct: full length (no signal peptide), C-terminal His6 tag kept, pET30a, E. coli BL21(DE3); monomer by PISA
Nature of the series: X-ray crystal structure, soaked crystal. In kind it is binding. The settings on record: 500 mM Sop2 soak, about 2 h; subsites -1 and +1; mutant printed E316G once.

Substrate in series [2]: O=[N+]([O-])c1ccc(O[C@@H]2O[C@H](CO)[C@H](O)[C@H](O)[C@H]2O)cc1
Nature of the series: purified protein. The conditions noted are these: pH 6.5.

Substrate in series [3]: O=[N+]([O-])c1ccc(O[C@@H]2O[C@H](CO)[C@@H](O)[C@H](O)[C@H]2O)cc1
Nature of the series: purified protein. The settings on record: pH 6.5.

Substrate in series [4]: C[C@H]1O[C@@H](Oc2ccc([N+](=O)[O-])cc2)[C@H](O)[C@@H](O)[C@H]1O
Nature of the series: p-nitrophenol release, biphasic fit. The settings on record: pH 6.5, first (stronger) site of biphasic equation. The series is classed as biochemical, Streptomyces griseus. The source says:
p-nitrophenol release, biphasic fit on SGR_2426r (SGR_2426 protein)

T1 sequence (B1W1N0 entry or part of it E318G): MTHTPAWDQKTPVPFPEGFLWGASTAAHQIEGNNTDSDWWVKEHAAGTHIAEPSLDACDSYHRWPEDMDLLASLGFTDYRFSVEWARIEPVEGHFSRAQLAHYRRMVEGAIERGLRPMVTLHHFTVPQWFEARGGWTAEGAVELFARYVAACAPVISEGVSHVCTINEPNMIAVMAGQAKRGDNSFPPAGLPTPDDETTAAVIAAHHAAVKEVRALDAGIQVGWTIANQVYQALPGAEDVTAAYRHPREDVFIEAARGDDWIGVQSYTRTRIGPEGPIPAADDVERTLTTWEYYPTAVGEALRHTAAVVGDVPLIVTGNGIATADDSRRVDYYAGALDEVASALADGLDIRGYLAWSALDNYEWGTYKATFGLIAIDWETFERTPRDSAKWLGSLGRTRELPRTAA

For the molecule `OC[C@H]1O[C@@H](O[C@H]2C(O)O[C@H](CO)[C@@H](O)[C@@H]2O)[C@H](O)[C@@H](O)[C@@H]1O` (stereo partly shown) [Sop2, sophorose], the “X-ray crystal structure, soaked crystal” value in series [1] was “crystals of the E318G mutant prepared without Sop2 were soaked”.

B1: SGR_2426r (SGR_2426 protein) (Streptomyces griseus subsp. griseus NBRC 13350) (protein)
chain: MTHTPAWDQKTPVPFPEGFLWGASTAAHQIEGNNTDSDWWVKEHAAGTHIAEPSLDACDSYHRWPEDMDLLASLGFTDYRFSVEWARIEPVEGHFSRAQLAHYRRMVEGAIERGLRPMVTLHHFTVPQWFEARGGWTAEGAVELFARYVAACAPVISEGVSHVCTINEPNMIAVMAGQAKRGDNSFPPAGLPTPDDETTAAVIAAHHAAVKEVRALDAGIQVGWTIANQVYQALPGAEDVTAAYRHPREDVFIEAARGDDWIGVQSYTRTRIGPEGPIPAADDVERTLTTWEYYPTAVGEALRHTAAVVGDVPLIVTENGIATADDSRRVDYYAGALDEVASALADGLDIRGYLAWSALDNYEWGTYKATFGLIAIDWETFERTPRDSAKWLGSLGRTRELPRTAA
notes: full length (no signal peptide), C-terminal His6 tag kept, pET30a, E. coli BL21(DE3); monomer by PISA
With B1, the Km is listed as 5.8 ± 0.3 mM in series [2], 1.0 ± 0.1 mM in series [3] and 0.16 ± 0.1 mM in series [4]. In addition, the Vmax in series [2] was found to be 13 µmol/min/mg; in series [3] it was 28 µmol/min/mg; in series [4], 4.6 µmol/min/mg. Moreover, the figures for the Vmax/Km in series [2], in series [3] and in series [4] were 2300 µL/min/mg, 28000 µL/min/mg and 29000 µL/min/mg, respectively.
